Measurements taken from patent US20230257454A1 (STAIDSON BEIJING BIOPHARMACEUTICALS, published 2023).
Changes are numbered by the printed parent chain.

T1: human C5a (source not stated) (human, UniProt P01031 678-751)
T1 sequence: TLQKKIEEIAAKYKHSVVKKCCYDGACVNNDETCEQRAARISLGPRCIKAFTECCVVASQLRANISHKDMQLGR

B1: Cab32 (reformatted as human IgG1) (antibody, V domains shown)
VH: EMQLVESGGGLVQPGGSLRLSCAASGFTFSDYYMQWVRQAPGKGPEWVGLIRNKAVGGTTQYAASVKGRFTISRDDSKNSVYLQMNSLKTEDTAVYYCVSRAGPPGLSWGQGVLVTVSS
VL: DIVMTQSPLSLPVTPGEPASISCRSSQSLLASDGYIYIDWYLQKPGQSPQLLIYGGSNRASGVPDRFSGSGSGTDFTLKISRVEAEDVGVYFCLQHRALPPTFGQGTKLEIK
B2: Cab41 (reformatted as human IgG1) (antibody, V domains shown)
VH: B1 VH with G58R
VL: B1 VL with I36N
B3: Cab40 (reformatted as human IgG1) (antibody, V domains shown)
VH: B1 VH with G58Q
VL: B1 VL with I36N
B4: Cab46 (reformatted as human IgG1) (antibody, V domains shown)
VH: B1 VH with M2V, M34I, Q61T, V81A, Y97F
VL: B1 VL with S32T, I36E, I38L, G56A, F92Y, R97K
B5: Cab34 (reformatted as human IgG1) (antibody, V domains shown)
VH: B1 VH with Q61E
VL: B1 VL with I36N
B6: Cab36 (reformatted as human IgG1) (antibody, V domains shown)
VH: B1 VH with G58E, Q61E
VL: B1 VL with I36N
B7: Cab18 scFv (scFv, V domains shown)
VH: B1 VH with E1V, M2V, R19K, L20V, V56I, G58E, N79S, S80I, N86S
VL: DIVMTQNPLSLPVTPGEPASISCRSSQSLLDSNRYAYVDWYLQKPGQSPQILVYGGSNRASGVPDRFSGSGSGTDFTLKISKVEAEDVGIYYCMQHKVLPPTFGQGTKLEIK
B8: Cab33 (reformatted as human IgG1) (antibody, V domains shown)
VH: B1 VH
VL: B1 VL with I36N, R97K
B9: Cab37 (reformatted as human IgG1) (antibody, V domains shown)
VH: B1 VH with G58F
VL: B1 VL with I36N
B10: Cab19 scFv (scFv, V domains shown)
VH: EVQLVESGGGLVQPGGSLKVSCVASGFTFSDYYIQWVRQAPGKGPEWVGLIRNKAVGGTTSYAASVKGRFTISRDDSKSVAYLQMTSLKTEDTAVYFCVSRAGPPGLSWGQGVLVTVSS
VL: DIVMIQNPLSLPVTPGEPASISCRSSQSLLHSDGYTYLDWYQQKPGQAPQLLIYGGSNRASGVPDRFSGSGSATDFTLKISKMEAEDVGVYYCMQHKALPPTFGGGTKVEIK
B11: Cab17 scFv (scFv, V domains shown)
VH: VVQLVESGGGLVLPGGSLKVSCAASGFIFSDYYIQWVRQAPGKGPEWVGLIRNKAVGETVQYAASLKGRFTISRDDSKSIAYLQMTSLKTEDTAMYYCVSRAGPPGLTWGQGVLVTVSS
VL: B7 VL with T5I, P12S, S28R, D31A, N33D, R34G, A36T, V53I, I90V, V98A
B12: Cab03 scFv (scFv, V domains shown)
VH: EVQLVESGGGLVQPGGSLKVSCAASGFIFSDYYMQWVRQAPGKGPEWVGLIRKKVNGGTTEYAASVKGRFTISRDDSKSIVYLQMSSLKIEDTAVYYCVSRAGPPGLTWGQGVLVTVSS
VL: DIVLTQTPLSLAVSPGEPASISCRSSQSLLASDGYTYLDWYLQKPGQSPQILIYGGSNRASGVPDRFSGRGSGTDFTLKITKVEAEDVGVYYCLQHRALPPTFGQGTKLEIK
B13: Cab21 scFv (scFv, V domains shown)
VH: EVQLVQSGGGLVQPGGSLKVSCAASGFIFSNYYIQWVRQAPGKGPEWVGLIRNKAIGETTEFAASVKGRFTISRDDSKSIVYLQMTRLKTEDTAVYYCAGRLGPPGLTWGQGVLVTISS
VL: B1 VL with I2A, S7T, I36N, K44R, Q50K, L51V, D75Y, R82K, V90F
B14: Cab13 scFv (scFv, V domains shown)
VH: B1 VH with E1V, M2V, R19K, L20V, V56I, N79S, S80I, N86S, V117I
VL: B7 VL with T5I, D31A, N33D, R34G, A36N, V38M, Q50K, I51V, V53I, S81T
B15: Cab04 scFv (scFv, V domains shown)
VH: B1 VH with M2V, E6Q, R19K, L20V, V56I, N79S, S80I, N86S, L114V
VL: DIVMIQTPLSLPVTPGEPASISCRSSQRLLHTDGYTYLDWYLQKPGQSPQLLIYGGSNRASGVPDRFSGSGSGSDFTLKISKVEAEDVGVYYCLQHKALPLTFGGGTKLEIK
B16: Cab01 scFv (scFv, V domains shown)
VH: EVQLVESGGGMVQPGGSLRVSCAASGFTFTKYYMQWVRQAPGKGPEWVGLIRNKANGGTAEYVASVKDRFTISRDDSKSIAYLQMSSLKTEDTAVYYCVMRDNGYHWGQGVLVTVSS
VL: B15 VL with M4L, I5T, T32S, S74T, L94M, L109V
B17: Cab15 scFv (scFv, V domains shown)
VH: VVQLVESGGGLVQPGGSLKVSCAASGFTFSDYYMQWVRQAPGKGPEWVGLIRNKAIGETTEYAASVKGRFTISRDDSKSIVYLQMSSLKPEDTAVYYCAGRLGPPGLSWGQGVLVTVSS
VL: DIVMTQNPLSLPVTPGEPASISCRSSQSLLATDGYTYLDWYLQKPGQSPQVLIYGGSKRASGVPDRFSGSGSGTDFTLKITKVEAEDVGIYYCMQHKALPPTFGQGTKLEIK
B18: Cab43 (reformatted as human IgG1) (antibody, V domains shown)
VH: B13 VH with Q6E, K19R, V20L, I28T, S79N, I80S, T86N, R87S, I117V
VL: B1 VL with S28N, S32T, I36T, I38L, N58K, F92Y
B19: Cab38 (reformatted as human IgG1) (antibody, V domains shown)
VH: B1 VH with G58H
VL: B1 VL with I36N
B20: Cab35-IgG1 (antibody, V domains shown)
VH: B1 VH with G58E
VL: B1 VL with I36N

target: T1, human C5a (source not stated); assay: cell-based or functional assay

First: B1
Second: B2
The ROS IC50 of the first is 2.5-fold higher: 1.76 nM for the first, 0.7 nM for the second.

B3 and B4 are within 1.5-fold of each other in ROS IC50: 0.7 nM for the first, 0.66 nM for the second.

B5 and B6 are within 1.5-fold of each other in ROS IC50: 1.61 nM for the first, 1.41 nM for the second.

B7 and B8 are within 1.5-fold of each other in ROS IC50: 1.36 nM for the first, 1.7 nM for the second.

B9 and B10 are within 1.5-fold of each other in ROS IC50: 0.92 nM for the first, 1.32 nM for the second.

B11 gave an ROS IC50 of 1.87 nM.

target: T1, human C5a (source not stated); assay: cell-based or functional assay; remark: another data set of the same source

First: B12
Second: B13
The “ROS IC50” value of the first is 1.7-fold higher: 1.41 nM for the first, 0.84 nM for the second.

Compared with B14, B15 is 1.7-fold higher in “ROS IC50” value: 1.08 nM for the first, 1.87 nM for the second.

First: B16
Second: B17
The “ROS IC50” value of the first is 2.4-fold higher: 1.51 nM for the first, 0.64 nM for the second.

target: T1, human C5a (source not stated); assay: cell-based or functional assay; remark: another data set of the same source

B18 and B19 are within 1.5-fold of each other in “ROS IC50” value: 0.62 nM for the first, 0.53 nM for the second.

B20 was tested, and the “ROS IC50” value was 1.28 nM.
